Source: patent US20260232827A1 (Zymeworks, published 2026)
Like-named read-outs stand apart in the source and are kept apart here.

T1: human sodium-dependent phosphate transporter 2B (NaPi2b) (human, UniProt O95436 1-690)
T1 sequence: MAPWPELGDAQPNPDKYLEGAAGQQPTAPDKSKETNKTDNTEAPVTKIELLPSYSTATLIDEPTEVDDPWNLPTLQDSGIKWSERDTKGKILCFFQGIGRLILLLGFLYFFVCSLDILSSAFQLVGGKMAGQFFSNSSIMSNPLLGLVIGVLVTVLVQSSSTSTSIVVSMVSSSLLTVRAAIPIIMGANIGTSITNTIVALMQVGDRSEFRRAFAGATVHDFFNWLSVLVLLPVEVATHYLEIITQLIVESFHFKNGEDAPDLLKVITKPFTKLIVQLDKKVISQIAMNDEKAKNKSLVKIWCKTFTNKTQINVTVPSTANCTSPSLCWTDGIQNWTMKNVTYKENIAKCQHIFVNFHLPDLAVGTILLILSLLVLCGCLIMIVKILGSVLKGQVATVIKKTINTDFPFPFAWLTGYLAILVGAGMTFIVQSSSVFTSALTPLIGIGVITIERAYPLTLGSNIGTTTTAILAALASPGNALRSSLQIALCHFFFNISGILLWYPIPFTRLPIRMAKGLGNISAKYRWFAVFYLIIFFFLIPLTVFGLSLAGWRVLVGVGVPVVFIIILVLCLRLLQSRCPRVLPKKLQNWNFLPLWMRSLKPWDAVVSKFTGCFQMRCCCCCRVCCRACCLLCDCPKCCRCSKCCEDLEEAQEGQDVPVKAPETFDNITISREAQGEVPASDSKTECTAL

T2: cynomolgus monkey NaPi2b (cynomolgus monkey, UniProt O95436 1-690 (human entry))
T2 construct: Transfected into HEK293-6e cells (clone CL_#13433); also called Cy NaPi2b; Cyno NaPi2b
T2 chain: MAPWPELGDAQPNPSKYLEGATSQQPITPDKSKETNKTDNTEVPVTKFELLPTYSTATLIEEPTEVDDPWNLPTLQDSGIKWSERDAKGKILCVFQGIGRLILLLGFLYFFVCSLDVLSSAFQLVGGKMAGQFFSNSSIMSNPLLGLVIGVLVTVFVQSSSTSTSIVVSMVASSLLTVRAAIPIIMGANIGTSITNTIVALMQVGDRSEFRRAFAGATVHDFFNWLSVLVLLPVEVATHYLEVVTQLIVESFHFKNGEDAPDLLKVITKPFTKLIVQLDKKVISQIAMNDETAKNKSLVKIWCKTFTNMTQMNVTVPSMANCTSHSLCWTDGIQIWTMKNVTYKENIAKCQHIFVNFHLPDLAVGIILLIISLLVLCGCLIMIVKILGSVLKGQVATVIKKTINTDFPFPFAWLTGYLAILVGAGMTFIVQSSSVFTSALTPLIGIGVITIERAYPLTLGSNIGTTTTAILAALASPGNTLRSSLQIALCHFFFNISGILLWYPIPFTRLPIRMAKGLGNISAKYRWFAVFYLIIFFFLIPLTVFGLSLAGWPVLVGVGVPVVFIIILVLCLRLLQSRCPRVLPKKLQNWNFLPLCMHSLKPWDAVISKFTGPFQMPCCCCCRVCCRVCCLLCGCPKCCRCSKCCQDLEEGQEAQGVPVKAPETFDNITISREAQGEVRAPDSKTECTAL

T3: mouse NaPi2b (mouse, UniProt Q9DBP0 1-697)
T3 construct: Transfected into HEK293-6e cells (clone CL_#13476); also called Ms NaPi2b
T3 sequence: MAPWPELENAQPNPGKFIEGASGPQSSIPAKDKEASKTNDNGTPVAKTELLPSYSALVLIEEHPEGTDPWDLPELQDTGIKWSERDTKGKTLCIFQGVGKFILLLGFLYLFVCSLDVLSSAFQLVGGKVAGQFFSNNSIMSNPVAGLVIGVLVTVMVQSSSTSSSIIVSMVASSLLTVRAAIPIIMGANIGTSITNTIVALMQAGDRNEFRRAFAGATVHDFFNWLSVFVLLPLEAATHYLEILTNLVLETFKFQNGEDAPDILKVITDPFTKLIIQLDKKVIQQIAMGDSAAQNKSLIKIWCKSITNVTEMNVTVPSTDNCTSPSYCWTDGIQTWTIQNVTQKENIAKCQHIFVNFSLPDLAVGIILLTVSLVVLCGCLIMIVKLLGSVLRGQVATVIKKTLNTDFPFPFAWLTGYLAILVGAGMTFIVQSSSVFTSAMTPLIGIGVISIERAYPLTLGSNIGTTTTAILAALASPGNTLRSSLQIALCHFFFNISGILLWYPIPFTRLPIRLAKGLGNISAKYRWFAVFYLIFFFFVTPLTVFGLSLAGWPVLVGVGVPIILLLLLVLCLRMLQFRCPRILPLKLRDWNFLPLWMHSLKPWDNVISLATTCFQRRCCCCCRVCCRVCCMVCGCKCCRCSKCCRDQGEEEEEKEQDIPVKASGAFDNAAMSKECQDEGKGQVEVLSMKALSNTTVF

B1: v18993 (lifastuzumab) (antibody, human IgG1, kappa)
heavy 1: GEVQLVESGGGLVQPGGSLRLSCAASGFSFSDFAMSWVRQAPGKGLEWVATIGRVAFHTYYPDSMKGRFTISRDNSKNTLYLQMNSLRAEDTAVYYCARHRGFDVGHFDFWGQGTLVTVSSASTKGPSVFPLAPSSKSTSGGTAALGCLVKDYFPEPVTVSWNSGALTSGVHTFPAVLQSSGLYSLSSVVTVPSSSLGTQTYICNVNHKPSNTKVDKKVEPKSCDKTHTCPPCPAPELLGGPSVFLFPPKPKDTLMISRTPEVTCVVVDVSHEDPEVKFNWYVDGVEVHNAKTKPREEQYNSTYRVVSVLTVLHQDWLNGKEYKCKVSNKALPAPIEKTISKAKGQPREPQVYVYPPSRDELTKNQVSLTCLVKGFYPSDIAVEWESNGQPENNYKTTPPVLDSDGSFALVSKLTVDKSRWQQGNVFSCSVMHEALHNHYTQKSLSLSPG
heavy 2: not shown
light: GDIQMTQSPSSLSASVGDRVTITCRSSETLVHSSGNTYLEWYQQKPGKAPKLLIYRVSNRFSGVPSRFSGSGSGTDFTLTISSLQPEDFATYYCFQGSFNPLTFGQGTKVEIKRTVAAPSVFIFPPSDEQLKSGTASVVCLLNNFYPREAKVQWKVDNALQSGNSQESVTEQDSKDSTYSLSSTLTLSKADYEKHKVYACEVTHQGLSSPVTKSFNRGEC
notes: Two different heavy chains (heterodimeric Fc)
B2: v22277 (palivizumab) (antibody, human IgG1, kappa)
heavy 1: GQVTLRESGPALVKPTQTLTLTCTFSGFSLSTSGMSVGWIRQPPGKALEWLADIWWDDKKDYNPSLKSRLTISKDTSKNQVVLKVTNMDPADTATYYCARSMITNWYFDVWGAGTTVTVSSASTKGPSVFPLAPSSKSTSGGTAALGCLVKDYFPEPVTVSWNSGALTSGVHTFPAVLQSSGLYSLSSVVTVPSSSLGTQTYICNVNHKPSNTKVDKKVEPKSCDKTHTCPPCPAPELLGGPSVFLFPPKPKDTLMISRTPEVTCVVVDVSHEDPEVKFNWYVDGVEVHNAKTKPREEQYNSTYRVVSVLTVLHQDWLNGKEYKCKVSNKALPAPIEKTISKAKGQPREPQVYVYPPSRDELTKNQVSLTCLVKGFYPSDIAVEWESNGQPENNYKTTPPVLDSDGSFALVSKLTVDKSRWQQGNVFSCSVMHEALHNHYTQKSLSLSPG
heavy 2: not shown
light: GDIQMTQSPSTLSASVGDRVTITCKSQLSVGYMHWYQQKPGKAPKLLIYDTSKLASGVPSRFSGSGSGTEFTLTISSLQPDDFATYYCFQGSGYPFTFGGGTKLEIKRTVAAPSVFIFPPSDEQLKSGTASVVCLLNNFYPREAKVQWKVDNALQSGNSQESVTEQDSKDSTYSLSSTLTLSKADYEKHKVYACEVTHQGLSSPVTKSFNRGEC
B3: humanized anti-NaPi2b antibody variant v38591 (antibody, human IgG1, kappa)
heavy: not shown
light: DVQMTQSPSSLSASVGDRVTITCRASQDVYSYLNWYQQKPGKAVKLLIYYTSRLQSGVPSRFSGSGSGTDYTLTISSLQPEDFATYYCQQYNIFPWTFGQGTKLEIKRTVAAPSVFIFPPSDEQLKSGTASVVCLLNNFYPREAKVQWKVDNALQSGNSQESVTEQDSKDSTYSLSSTLTLSKADYEKHKVYACEVTHQGLSSPVTKSFNRGEC
notes: Human IgG1/kappa, full-size antibody; same as v29456 but the heavy chains include a C-terminal lysine; also called v38591 (H1L2); v38591 wild-type Fc
B4: v29456-MC-GGFG-AM-Compound 139 DAR 8 (antibody, human IgG1, kappa)
heavy: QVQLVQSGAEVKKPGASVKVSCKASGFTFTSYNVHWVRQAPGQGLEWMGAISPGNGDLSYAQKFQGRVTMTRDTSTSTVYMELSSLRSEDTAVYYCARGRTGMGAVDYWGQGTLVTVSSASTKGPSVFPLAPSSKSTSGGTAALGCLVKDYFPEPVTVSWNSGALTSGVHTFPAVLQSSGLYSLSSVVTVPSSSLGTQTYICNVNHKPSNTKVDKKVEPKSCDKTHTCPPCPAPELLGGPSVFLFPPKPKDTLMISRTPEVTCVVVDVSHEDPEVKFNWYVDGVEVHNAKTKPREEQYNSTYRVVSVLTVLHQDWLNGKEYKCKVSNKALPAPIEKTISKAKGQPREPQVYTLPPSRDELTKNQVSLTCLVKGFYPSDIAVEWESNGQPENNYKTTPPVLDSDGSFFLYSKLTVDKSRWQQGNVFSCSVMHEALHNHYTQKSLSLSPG
light: DVQMTQSPSSLSASVGDRVTITCRASQDVYSYLNWYQQKPGKAVKLLIYYTSRLQSGVPSRFSGSGSGTDYTLTISSLQPEDFATYYCQQYNIFPWTFGQGTKLEIKRTVAAPSVFIFPPSDEQLKSGTASVVCLLNNFYPREAKVQWKVDNALQSGNSQESVTEQDSKDSTYSLSSTLTLSKADYEKHKVYACEVTHQGLSSPVTKSFNRGEC
modifications: drug-linker MC-GGFG-AM-Compound 139 on cysteine thiols after TCEP reduction, positions not given; DAR 8.0 for the whole antibody

Columns and labels:
[1] = target: T1, human sodium-dependent phosphate …; experiment: cell-based or functional assay
cynomolgus monkey NaPi2b [2] = target: T2, cynomolgus monkey NaPi2b; experiment: flow cytometry on HEK293-6e cells transfected with cynomolgus NaPi2b, apparent Kd
Method: (§1) Following transfection, cells were seeded at 50,000 cells/well in conical-bottom 96-well plates and treated with test antibody or antibody-drug conjugate for 24 hours at 4° C. to prevent internalization. […] Following incubation and washing, fluorescence was detected by flow cytometry on a BD LSRFortessa™ Cell Analyzer (BD Biosciences, Franklin Lake, NJ) with 1,000 minimum events collected per well.

[3] = target: T1, human sodium-dependent phosphate …; experiment: flow cytometry on IGROV-1 cells, 24 h at 4 C, anti-human IgG Fc AF647
Method: (§2) Following incubation and washing, fluorescence was detected by flow cytometry on a BD LSRFortessa™ Cell Analyzer (BD Biosciences, Franklin Lake, NJ) with 1,000 minimum events collected per well.

cynomolgus monkey NaPi2b [4] = target: T2, cynomolgus monkey NaPi2b; experiment: flow cytometry on HEK293-6e cells transfected with cynomolgus NaPi2b
Method: as §1

[5] = target: T1, human sodium-dependent phosphate …; experiment: flow cytometry on HEK293-6e cells transfected with human NaPi2b, apparent Kd
Method: as §1

[6] = target: T1, human sodium-dependent phosphate …; experiment: flow cytometry on HEK293-6e cells transfected with human NaPi2b
Method: as §1

[7] = target: T1, human sodium-dependent phosphate …; experiment: flow cytometry on OVCAR-3 cells, 24 h at 4 C, anti-human IgG Fc AF647
Method: as §2

[8] = target: T1, human sodium-dependent phosphate …; experiment: flow cytometry on HEK293-6e cells transfected with human NaPi2b, apparent Kd; remark: listed apart in the source
Method: as §1

[9] = target: T1, human sodium-dependent phosphate …; experiment: flow cytometry on HEK293-6e cells transfected with human NaPi2b; remark: listed apart in the source
Method: as §1

[10] = target: T1, human sodium-dependent phosphate …; experiment: cell-based or functional assay; remark: listed apart in the source
mouse NaPi2b [11] = target: T3, mouse NaPi2b; experiment: flow cytometry on HEK293-6e cells transfected with mouse NaPi2b, apparent Kd
Method: as §1

mouse NaPi2b [12] = target: T3, mouse NaPi2b; experiment: flow cytometry on HEK293-6e cells transfected with mouse NaPi2b
Method: as §1

[13] = target: T1, human sodium-dependent phosphate …; experiment: cell-based or functional assay; remark: listed apart in the source
[14] = target: T1, human sodium-dependent phosphate …; experiment: cell-based or functional assay; remark: listed apart in the source
[15] = target: T1, human sodium-dependent phosphate …; experiment: cell-based or functional assay; remark: listed apart in the source

Binder | Internalized Fluorescence in OVCAR-3, 15 min, 100 nM [1] | Internalized Fluorescence in OVCAR-3, 4 hr, 100 nM [1] | Internalized Fluorescence in OVCAR-3, 16 hr, 100 nM [1] | Internalized Fluorescence in OVCAR-3, 24 hr, 100 nM [1] | Kd (cynomolgus monkey NaPi2b [2]) [nM] | Bmax [3] | Kd [3] [nM] | Bmax (cynomolgus monkey NaPi2b [4]) | Kd [5] [nM] | Bmax [6] | Bmax [7] | Kd [7] [nM] | Kd [8] [nM] | Bmax [9] | further results
B1 | 2480 | 8750 | 8600 | 13900 | 4.71 | 20000 | 2.69 | 424 | 5.76 | 678 | 14500 | 5.79 | 5.76 | 678 | –
B2 | – | – | – | – | – | – | – | – | – | – | – | – | – | – | Internalized Fluorescence Fold-Over Palivizumab, IGROV-1, 4 hrs, 10 nM [10]: 1 fold; Internalized Fluorescence Fold-Over Palivizumab, OVCAR-3, 4 hrs, 10 nM [10]: 1 fold; Internalized Fluorescence Fold-Over Palivizumab, OVCAR-3, 24 hrs, 10 nM [10]: 1 fold
B3 | 7620 | 16600 | 24300 | 32400 | 0.27 | 22200 | 1.67 | 429 | 1.68 | 651 | 15100 | 2.8 | 1.68 | 651 | Kd (mouse NaPi2b [11]): 0.29 nM; Bmax (mouse NaPi2b [12]): 385
B4 | – | – | – | – | – | – | – | – | – | – | – | – | – | – | EC50, in vitro cytotoxicity, 2D monolayer, IGROV-1 [13]: 0.39 nM; EC50, in vitro cytotoxicity, 2D monolayer, TOV-21G [13]: 4.3 nM; EC50, in vitro cytotoxicity, H441 spheroids [14]: 1.57 nM; EC50, in vitro cytotoxicity, IGROV-1 spheroids [14]: 0.55 nM; EC50, in vitro cytotoxicity, TOV-21G spheroids [14]: 0.54 nM; EC50, in vitro cytotoxicity, IGROV-1 spheroids [15]: 0.31 nM; EC50, in vitro cytotoxicity, TOV-21G:HDFa (1:1) spheroids [15]: 0.24 nM
